In assay [1] the target is recombinant bovine FcRn (bovine) (UniProt F6R592). In words: SPR Biacore, bFcRn on SA sensor, pH 6, 25 C. In general terms: In SPR one partner is held on a chip, and binding of the other changes the refractive index at the surface.
Assay [2] has the same target. In words: SPR Biacore, bFcRn, pH 6; against bIgG1a and bIgG3a mAbs.
For assay [3] the target is unchanged. In words: SPR Biacore, bFcRn on SA sensor, pH 6, 25 C. The source holds these as a separate data set.
The target in assay [4] is recombinant bovine Fcg2R (bovine). In words: SPR Biacore, bFcg2R amine-coupled on CM5, pH 7.4, 15 C.
Assay [5] deals with recombinant bovine FcRn (bovine) (UniProt F6R592). In words: SPR Biacore, bFcRn on SA sensor, pH 7.4, 25 C.
The target is the same in assay [6]. In words: SPR Biacore, bFcRn on SA sensor, pH 7.4, 25 C. This is another data set of the same source.
The target of assay [7] is Fc gamma receptors on bovine alveolar macrophages. The assay can be described thus: cell-based or functional assay.

Chain of recombinant bovine FcRn (bovine) (chain, as listed by the source, chain 1 of 2): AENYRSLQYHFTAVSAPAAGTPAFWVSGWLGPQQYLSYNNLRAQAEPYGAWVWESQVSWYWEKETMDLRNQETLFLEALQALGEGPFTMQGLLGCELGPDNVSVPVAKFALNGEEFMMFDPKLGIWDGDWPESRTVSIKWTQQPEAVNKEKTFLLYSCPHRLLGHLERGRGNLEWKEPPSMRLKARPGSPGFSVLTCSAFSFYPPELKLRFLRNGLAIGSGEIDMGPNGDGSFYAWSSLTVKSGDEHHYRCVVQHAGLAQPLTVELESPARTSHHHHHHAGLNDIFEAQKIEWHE
Chain of recombinant bovine FcRn (bovine) (P01888 21-118, chain 2 of 2): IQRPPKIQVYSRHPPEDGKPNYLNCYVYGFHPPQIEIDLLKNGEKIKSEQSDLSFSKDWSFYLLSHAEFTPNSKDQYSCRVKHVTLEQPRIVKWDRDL
Chain of recombinant bovine Fcg2R (bovine) (main, as listed by the source): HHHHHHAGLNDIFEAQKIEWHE

bIgG2a wildtype mAb (antibody): the Kd stood at 0.254 nM in assay [1]; 3.06 nM in assay [3]; 13.3 nM in assay [4]; 131 nM in assay [5]; 147 nM in assay [6]. Moreover, in assay [2], the fold higher affinity than bIgG1a and bIgG3a came to 10 fold.
For “CTLA4 Fc bIgG1a (from UniProt Q9XSI1 36-161) (Fc fusion)”, in assay [7], the ADCP EC50 Value came out at 0.003 µg/mL.
In turn, “CTLA4 Fc bIgG3a (from UniProt Q9XSI1 36-161) (Fc fusion)” gave an ADCP EC50 Value in assay [7] of 0.029 µg/mL.
“CTLA4bG2a (from UniProt Q9XSI1 36-161) (Fc fusion)”: the ADCP EC50 Value in assay [7] worked out at 0.014 µg/mL.

Broadly, the Kd is the constant that tells how readily two partners part at equilibrium.

The record behind these values is patent US20230416410A1.
